Experiment [1] addresses T1, human mesothelin with His-tag (R&D Systems) (human, UniProt Q13421 296-580).
T1 construct: also called huMesothelin; MSLN; not shown: His-tag
Briefly: ELISA, IgG on captured His-huMesothelin (R&D).

Experiment [2] deals with T2, human mesothelin with His-tag (in house) (human, UniProt Q13421 296-598, limits assumed).
T2 construct: also called huMesothelin; MSLN; not shown: His-tag
Briefly: ELISA, IgG on captured His-huMesothelin (in house).

The target in experiment [3] is T3, human mesothelin (SPR) (human, UniProt Q13421 296-598, limits assumed).
T3 construct: also called human MSLN
Briefly: SPR, IgG captured on Protein A, 50 nM human mesothelin, 25 C, 1:1 fit.

Several values for one entry are separate records, joined by “and”; a condition that tells them apart may be missing. Equal values may be shown once.

T1 sequence (Q13421 other isoform, or with tags, fused parts or gaps limits assumed): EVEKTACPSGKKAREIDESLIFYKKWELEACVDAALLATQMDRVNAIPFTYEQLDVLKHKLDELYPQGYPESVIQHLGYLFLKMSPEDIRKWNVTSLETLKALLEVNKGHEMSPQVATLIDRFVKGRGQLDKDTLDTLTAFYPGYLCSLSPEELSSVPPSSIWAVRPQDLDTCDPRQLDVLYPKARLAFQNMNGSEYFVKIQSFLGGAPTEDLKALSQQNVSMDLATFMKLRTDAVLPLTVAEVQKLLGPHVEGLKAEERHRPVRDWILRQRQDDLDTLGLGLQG
T2 sequence (Q13421 other isoform, or with tags, fused parts or gaps limits assumed): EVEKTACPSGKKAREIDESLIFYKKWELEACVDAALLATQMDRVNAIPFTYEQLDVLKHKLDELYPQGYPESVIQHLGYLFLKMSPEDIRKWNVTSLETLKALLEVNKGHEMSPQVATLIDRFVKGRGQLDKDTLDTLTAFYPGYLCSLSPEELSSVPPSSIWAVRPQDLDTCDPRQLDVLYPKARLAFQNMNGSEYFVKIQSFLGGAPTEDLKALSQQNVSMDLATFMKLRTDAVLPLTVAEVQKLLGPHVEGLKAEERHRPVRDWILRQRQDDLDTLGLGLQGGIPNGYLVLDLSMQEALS

B1: IgG VH 001/15438 + VL 000/15456 (antibody, V domains shown)
VH: QVQLVQSGAEVKKPGASVKVSCKASGYSFTGYTMNWVRQAPGQGLEWMGLITPYNGASSYNQKFRGKATMTVDTSTSTVYMELSSLRSEDTAVYYCARGGYDGRGFDYWGQGTLVTVSS
VL: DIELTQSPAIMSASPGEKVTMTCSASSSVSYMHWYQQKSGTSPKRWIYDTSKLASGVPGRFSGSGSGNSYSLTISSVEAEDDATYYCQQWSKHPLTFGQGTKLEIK
For the molecule B1, the EC50 stood at 0.0228 µg/mL in experiment [1] and 0.032 µg/mL in experiment [2].

B2: IgG VH 001/15438 + VL 001/15457 (antibody, V domains shown)
VH: B1 VH
VL: DIQMTQSPSSLSASVGDRVTITCSASSSVSYMHWYQQKSGKAPKLLIYDTSKLASGVPSRFSGSGSGTDFTLTISSLQPEDFATYYCQQWSKHPLTFGQGTKLEIK
notes: also called VL001/VH001; VL01/VH01
With B2, in experiment [3], the dissociation constant (Kd) was 0.263 nM and 0.26 nM. The values for the EC50 in experiment [1] and in experiment [2] were 0.0155 µg/mL and 0.0203 µg/mL, respectively.

B3: IgG VH 000/15437 + VL 001/15457 (antibody, V domains shown)
VH: not shown
VL: B2 VL
As for B3, the 50% effective concentration (EC50) was determined as 0.0182 µg/mL in experiment [1] and 0.0178 µg/mL in experiment [2].
